Measurements published in patent US20250011363A1, “OPTIMIZED SHORTENED PEPTIDE THAT BINDS TO ACETYLCHOLINE RECEPTOR, AND USE THEREOF” (SKINMED CO., LTD., priority 2021, published 2025).

The substances below were run against acetylcholine receptor (Homo sapiens, UniProt P02708) (assay: SPR binding affinity (RU) of optimized 5mer/6mer/7mer peptides, Examples 6-7). Settings: 6mer-1 Top sequence; SPR; peptides tested at 10 μM.
Protocol: Based on the frequencies of occurrence of the top 7 amino acids from Table 7 in Example 5, 600 peptides comprising these amino acids (top combinations) and those comprising the 13 less frequently occurring amino acids (bottom combinations) were synthesized for each series of 5mer, 6mer-1, and 6mer-2. The binding affinity of each sequence for the acetylcholine receptor was measured using Surface Plasmon Resonance (SPR) analysis method. The peptides were tested at a concentration of 10 μM. Additionally, the average binding affinities of the top and bottom combinations in each series are depicted in FIGS. 5-7.
Representative peptides identified in Example 6, two in each library, including 5mers (73, 311) and 6mers-1 (43, 210) and 6mers-2 (136, 233), were compared with the pre-optimized 6mer, 5mer-ND, and Synake.

Sequence of acetylcholine receptor (P02708 21-457): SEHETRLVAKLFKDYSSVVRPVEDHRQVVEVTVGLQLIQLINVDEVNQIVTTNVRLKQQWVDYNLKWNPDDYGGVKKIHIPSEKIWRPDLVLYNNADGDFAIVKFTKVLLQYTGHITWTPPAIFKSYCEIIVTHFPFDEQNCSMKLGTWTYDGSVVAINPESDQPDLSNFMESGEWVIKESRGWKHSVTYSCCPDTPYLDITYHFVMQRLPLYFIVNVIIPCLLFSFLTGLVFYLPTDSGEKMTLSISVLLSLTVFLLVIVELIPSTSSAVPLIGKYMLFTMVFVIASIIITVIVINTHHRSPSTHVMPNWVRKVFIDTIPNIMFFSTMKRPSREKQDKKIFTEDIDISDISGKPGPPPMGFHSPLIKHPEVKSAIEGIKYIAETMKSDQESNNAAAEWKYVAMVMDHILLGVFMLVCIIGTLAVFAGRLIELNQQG

Row | Substance | Binding affinity [Ru]
1 | 6mer-1-226 (RRWITR) | 128
2 | 6mer-1-207 (KKSQQR) | 151
3 | 6mer-1-329 (RKWRQK) | 123
4 | 6mer-1-232 (RRRICK) | 146
5 | 6mer-1-330 (RKVQRK) | 148
6 | 6mer-1-363 (KRQIRR) | 121
7 | 6mer-1-368 (RRRFSK) | 145
8 | 6mer-1-251 (RKVQSK) | 133

Same assay, conditions: 6mer-2 Top sequence; SPR; peptides tested at 10 μM

Row | Substance | Binding affinity [Ru]
9 | 6mer-2-101 (RLICRK) | 154
10 | 6mer-2-189 (RWQCKK) | 121
11 | 6mer-2-94 (RLYQRK) | 126
12 | 6mer-2-52 (KRQRKK) | 136
13 | 6mer-2-40 (RRYRKK) | 153
14 | 6mer-2-166 (RWLRKR) | 125
15 | 6mer-2-27 (KVIRRK) | 128
16 | 6mer-2-162 (KVISKR) | 136

Same assay, conditions: SPR, Resonance Units; 5mer Bottom sequence (bottom combinations); peptides tested at 10 μM

Row | Substance | Binding affinity [Ru]
17 | 5mer-761 (RMPWR) | 31
18 | 5mer-1098 (RFHGR) | 31
19 | 5mer-609 (RKTMK) | 32
20 | 5mer-958 (RKWKR) | 11
21 | 5mer-1064 (KCMKR) | 20
22 | 5mer-1028 (RMAMR) | 28
23 | 5mer-1006 (KEPER) | 17
24 | 5mer-996 (RMTKK) | 32
25 | 5mer-984 (KNAHK) | 11
26 | 5mer-959 (KPNMK) | 29
27 | 5mer-1030 (RISDK) | 18
28 | 5mer-617 (RYCAK) | 28
29 | 5mer-657 (KDNDR) | 22
30 | 5mer-644 (RMKWK) | 24
31 | 5mer-679 (KKTVK) | 21

Same assay, conditions: SPR, Resonance Units; peptides tested at 10 μM; 6mer-1 Bottom sequence

Row | Substance | Binding affinity [Ru]
32 | 6mer-1-1103 (KREDNK) | 27
33 | 6mer-1-1006 (KKDKIK) | 25
34 | 6mer-1-1124 (KKDEIR) | 21
35 | 6mer-1-1084 (KKCCPK) | 25
36 | 6mer-1-1101 (RRECDK) | 37
37 | 6mer-1-1128 (KKKKPK) | 39

Same assay, conditions: SPR, Resonance Units; peptides tested at 10 μM; 6mer-1 Bottom sequence (Table 11)

Row | Substance | Binding affinity [Ru]
38 | 6mer-1-676 (KRCPWR) | 16
39 | 6mer-1-648 (KKFWEK) | 17
40 | 6mer-1-785 (KKTCER) | 19
41 | 6mer-1-615 (KKTSER) | 18
42 | 6mer-1-650 (RRCNNR) | 18
43 | 6mer-1-769 (RKMPVK) | 14
44 | 6mer-1-671 (KKNMVR) | 11
45 | 6mer-1-695 (KRADVK) | 13

Same assay, conditions: SPR, Resonance Units; peptides tested at 10 μM; 6mer-2 Bottom sequence

Row | Substance | Binding affinity [Ru]
46 | 6mer-2-908 (KYKKKR) | 33
47 | 6mer-2-829 (KKKIRR) | 22
48 | 6mer-2-880 (RTHHKK) | 12
49 | 6mer-2-624 (KPPIRK) | 33
50 | 6mer-2-605 (KNCGKK) | 17
51 | 6mer-2-762 (KFEERK) | 24
52 | 6mer-2-948 (RPPFRR) | 28
53 | 6mer-2-628 (RKSFKR) | 30
54 | 6mer-2-701 (KTWAKR) | 23
55 | 6mer-2-892 (KDENRK) | 27

Same assay, conditions: SPR, Resonance Units; peptides tested at 10 μM; 6mer-2 Top sequence

Row | Substance | Binding affinity [Ru]
56 | 6mer-2-589 (RWQQRK) | 153
57 | 6mer-2-560 (RQYTRR) | 153
58 | 6mer-2-489 (RVISKK) | 142
59 | 6mer-2-420 (RRQYRK) | 128
60 | 6mer-2-440 (KQLSKK) | 153
61 | 6mer-2-565 (KSRRRR) | 147
62 | 6mer-2-522 (RVVLRK) | 124
63 | 6mer-2-473 (RGRLRK) | 131
64 | 6mer-2-584 (KRLTRK) | 148

Same assay, conditions: SPR, Resonance Units; peptides tested at 10 μM; 6mer-2 Top sequence (Table 12)

Row | Substance | Binding affinity [Ru]
65 | 6mer-2-208 (RSQQRK) | 128
66 | 6mer-2-304 (KWFYRK) | 144
67 | 6mer-2-399 (RWLTRR) | 148
68 | 6mer-2-356 (RLLQRR) | 145
69 | 6mer-2-262 (KWILKR) | 142
70 | 6mer-2-261 (RWYTKK) | 121
71 | 6mer-2-353 (RLQTKK) | 137

Same assay, conditions: SPR, peptides at 10 μM; 6mer-2 Bottom sequence

Row | Substance | Binding affinity [Ru]
72 | 6mer-2-1193 (REKIRR) | 43
73 | 6mer-2-1177 (RASEKR) | 41
74 | 6mer-2-1101 (RTKMRR) | 38
75 | 6mer-2-1095 (KYSMRR) | 39
76 | 6mer-2-1091 (RFDNKR) | 31
77 | 6mer-2-1011 (RAEFRR) | 22
78 | 6mer-2-1108 (KKKVRR) | 36
79 | 6mer-2-1089 (RKTDRR) | 43
80 | 6mer-2-1081 (KYKMRR) | 32

Same assay, conditions: SPR, peptides tested at 10 μM; 5mer Top sequence

Row | Substance | Binding affinity [Ru]
81 | 5mer-163 (KSLCK) | 61
82 | 5mer-55 (RRFSR) | 58
83 | 5mer-501 (KLQRK) | 78
84 | 5mer-67 (RQLYR) | 86

Same assay, conditions: SPR, peptides tested at 10 μM; 5mer Top sequence (top combinations)

Row | Substance | Binding affinity [Ru]
85 | 5mer-555 (KVQCK) | 71
86 | 5mer-279 (RVVTK) | 56
87 | 5mer-559 (KQQLK) | 81

Same assay, conditions: SPR, peptides tested at 10 μM; 6mer-1 Bottom sequence (Table 11)

Row | Substance | Binding affinity [Ru]
88 | 6mer-1-938 (KKIAWK) | 28
89 | 6mer-1-845 (KKIDKK) | 23
90 | 6mer-1-876 (RKYWAR) | 19
91 | 6mer-1-847 (KKYNHK) | 20
92 | 6mer-1-962 (KKNCDK) | 42
93 | 6mer-1-943 (KKEHDK) | 43
94 | 6mer-1-989 (KRATVR) | 27
95 | 6mer-1-948 (RKFTVR) | 24

Same assay, conditions: SPR, peptides tested at 10 μM; 6mer-1 Top sequence

Row | Substance | Binding affinity [Ru]
96 | 6mer-1-489 (KKVITK) | 148
97 | 6mer-1-513 (RKQIRR) | 154
98 | 6mer-1-507 (RRSQSK) | 139
99 | 6mer-1-1458 (RKGQLK) | 139
100 | 6mer-1-424 (RRRIYR) | 135

Same assay, conditions: SPR, peptides tested at 10 μM; 6mer-1 Top sequence (top combinations)

Row | Substance | Binding affinity [Ru]
101 | 6mer-1-92 (RRWRLK) | 153
102 | 6mer-1-47 (KRRLLK) | 149
103 | 6mer-1-113 (KRGVQK) | 148
104 | 6mer-1-188 (RKSLQK) | 122
105 | 6mer-1-32 (RKGQCR) | 121
106 | 6mer-1-73 (KKQQQR) | 142

Same assay, conditions: SPR; XRRGVRR-7mer and RRGVRRX-7mer

Row | Substance | Binding affinity, values relative to the RRGVRR sequence
107 | 3660 (ERRGVRR) [compound 3660] | 43

Same assay, conditions: SPR; XRRQRR-6mer and RRQRRX-6mer

Row | Substance | Binding affinity, relative value to the RRQRR sequence
108 | 3612 (TRRQRR) [compound 3612] | 103
109 | 3638 (RRQRRH) [compound 3638] | 158

Same assay, conditions: SPR; peptides tested at 10 μM; 5mer Bottom sequence

Row | Substance | Binding affinity [Ru]
110 | 5mer-1180 (KETAK) | 27
111 | 5mer-1120 (RPPDR) | 33
112 | 5mer-816 (RKPIK) | 26
113 | 5mer-867 (KDSWK) | 14
114 | 5mer-893 (RIKIK) | 18
115 | 5mer-1112 (RTTFK) | 29
116 | 5mer-1156 (KKMNK) | 13
117 | 5mer-1163 (KKSKR) | 12
118 | 5mer-833 (KATAK) | 33
